We go through 7 molecules from paper PMC3880350, “The mononuclear metal center of type-I dihydroorotase from aquifex aeolicus” (BMC Biochemistry, 2013).

Substitutions are numbered along the chain they refer to. Names and notes keep the numbering of the source.

As a reminder, the Km is the substrate concentration at which the rate is half of its maximum. As a reminder, the stoichiometry N is a count of units in the complex or per binding partner.

The target in data set [1] is T1, A. aeolicus DHO-ATC complex (DHO active site) (Aquifex aeolicus, UniProt O66990, H180A/H232A).
T1 construct: gene pyrC; both subunits full length with 3 kDa N-terminal His tag (pRSETC), expressed separately in E. coli BL21(DE3), mixed equimolar, dodecamer (6 DHO + 6 ATC) isolated by gel filtration; DHO 422 residues; with Aspartate carbamoyltransferase catalytic subunit
Description: X-ray crystal structure, […] Å. Format: binding. Conditions: crystal soaked in 15 mM dihydroorotate, 1 mM PALA, pH 5; DHO active site with one zinc.

For data set [2], the target named is T2, A. aeolicus DHO-ATC complex (ATC active site) (Aquifex aeolicus, UniProt O66726).
T2 construct: gene pyrB; both with 3 kDa N-terminal His tag (pRSETC), E. coli BL21(DE3); with Dihydroorotase
Nature of the data set: X-ray crystal structure, […] Å. It counts as binding. Conditions: crystal soaked in 1 mM PALA, 15 mM dihydroorotate, pH 5, bisubstrate analogue, mutations only in the DHO partner.

Substrate in data set [3]: O=C1C[C@@H](C(=O)O)NC(=O)N1
Description: colorimetric carbamoyl aspartate formation, saturation curve. Format: biochemical, Aquifex aeolicus. From the text: colorimetric carbamoyl aspartate formation, saturation curve on A. aeolicus DHO-ATC complex (DHO active site)

Data set [4] has as its target T3, Aquifex aeolicus dihydroorotase (DHO) subunit, wild type (Aquifex aeolicus, UniProt O66990 1-422).
T3 construct: Dihydroorotase (pyrC) of Aquifex aeolicus; gene amplified by PCR from the genome and inserted into pRSETC; One zinc ion per subunit; also called Wild Type DHO; A. aeolicus DHO
T3 sequence: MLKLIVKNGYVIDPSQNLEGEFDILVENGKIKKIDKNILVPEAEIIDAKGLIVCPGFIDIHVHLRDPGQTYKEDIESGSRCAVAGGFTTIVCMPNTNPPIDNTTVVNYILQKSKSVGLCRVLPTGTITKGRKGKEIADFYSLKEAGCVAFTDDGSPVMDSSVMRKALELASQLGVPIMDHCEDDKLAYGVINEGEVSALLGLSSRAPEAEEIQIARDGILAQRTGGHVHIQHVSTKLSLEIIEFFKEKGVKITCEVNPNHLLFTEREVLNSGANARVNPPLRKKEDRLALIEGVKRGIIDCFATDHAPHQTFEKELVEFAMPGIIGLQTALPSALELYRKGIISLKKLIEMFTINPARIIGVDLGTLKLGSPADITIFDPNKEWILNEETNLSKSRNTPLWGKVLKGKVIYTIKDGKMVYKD
Nature of the data set: SEC; purified subunits mixed in an equimolar ratio; complex isolated by gel filtration on a Sephacryl S-300 column; composition analysed by SDS-PAGE and ATC and DHO assays. The following applies: both partners purified. For orientation: In gel filtration, larger molecules generally elute earlier.

In data set [5] the target is T4, Aquifex aeolicus dihydroorotase (DHO) subunit, His180Ala mutant (Aquifex aeolicus, UniProt O66990 1-422, His180Ala).
T4 construct: Dihydroorotase (pyrC) of Aquifex aeolicus with His180 replaced by alanine; made by PCR on the plasmid that encodes the DHO subunit; Same construct as m1 with the point mutation
T4 sequence: T3 sequence with H180A
The data set is described as above. Conditions: both partners purified.

Data set [6] concerns the target T5, Aquifex aeolicus dihydroorotase (DHO) subunit, His232Ala mutant (Aquifex aeolicus, UniProt O66990 1-422, His232Ala).
T5 construct: Dihydroorotase (pyrC) of Aquifex aeolicus with His232 replaced by alanine; made by PCR on the plasmid that encodes the DHO subunit; Same construct as m1 with the point mutation
T5 sequence: T3 sequence with H232A
The data set is described as above. Conditions: both partners purified.

Data set [7] deals with T6, Aquifex aeolicus dihydroorotase (DHO) subunit, His180Ala/His232Ala double mutant (Aquifex aeolicus, UniProt O66990 1-422, His180Ala | His232Ala).
T6 construct: Dihydroorotase (pyrC) of Aquifex aeolicus with His180 and His232 replaced by alanine; made by PCR on the plasmid that encodes the DHO subunit; 422 C-alpha atoms in the structure; Same construct as m1 with the two point mutations; In the crystal one zinc and dihydroorotate in the active site; also called DHO Double Mutant; mutant DHO
T6 sequence: T3 sequence with H180A, H232A
The description is as above. Conditions: both partners purified.

Data set [8] deals with the molecule itself. Description: crystal structure; DHO double mutant-ATC complex, hanging drop, room temperature, 30% ethylene glycol with barium chloride; crystals soaked in 1 mM PALA and 15 mM dihydroorotate at pH 5; 2.2 Å.
Setting [9] is: 250 mM Tris acetate (Figure 7; Methods: 50 mM), pH 8.3, 72°C, mutant DHO reconstituted with native ATC.

As for `O=C1C[C@@H](C(=O)O)NC(=O)N1` [dihydroorotate], the “X-ray crystal structure, 2.2 Å” value in data set [1] was “one DHO subunit with one zinc atom and dihydroorotate in its active site”.
With `O=C(O)C[C@H](NC(=O)CP(=O)(O)O)C(=O)O` [PALA], in data set [2], the “X-ray crystal structure, 2.2 Å” value is given as “bisubstrate analog, N-phosphoacetyl L-aspartate (PALA) bound to the active site of the A. aeolicus ATC”.

B1: A. aeolicus DHO-ATC complex (DHO active site) (Aquifex aeolicus VF5) (protein)
chain: T3 sequence
notes: both subunits full length with 3 kDa N-terminal His tag (pRSETC), expressed separately in E. coli BL21(DE3), mixed equimolar, dodecamer (6 DHO + 6 ATC) isolated by gel filtration; DHO 422 residues; with Aspartate carbamoyltransferase catalytic subunit
Regarding B1, the Km in data set [3] (no exogenous zinc, 250 mM Tris acetate (Figure 4; Methods: 50 mM), pH 8.3, 75°C (Figure 4: 72°C), DHO reverse direction (hydrolysis)) stood at 1.52 ± 0.30 mM.

B2: A. aeolicus DHO-ATC complex (DHO active site) (Aquifex aeolicus VF5; H232A) (protein)
chain: T3 sequence with H232A
notes: as for B1
In the case of B2, the Km in data set [3] (setting [9]) was determined as 1.34 ± 0.22 mM.

B3: A. aeolicus DHO-ATC complex (DHO active site) (Aquifex aeolicus VF5; H180A) (protein)
chain: T3 sequence with H180A
notes: as for B1
Take B3: the Km in data set [3] (setting [9]) is on record as 1.65 ± 0.26 mM.

B4: A. aeolicus DHO-ATC complex (DHO active site) (Aquifex aeolicus VF5; H180A/H232A) (protein)
chain: T3 sequence with H180A, H232A
notes: as for B1
On to B4, for which the Michaelis-Menten constant (Km) in data set [3] (setting [9]) is recorded as 1.55 ± 0.30 mM.

B5: Aquifex aeolicus aspartate transcarbamoylase (ATC) subunit (enzyme)
chain: MRSLISSLDLTREEVEEILKYAKEFKEGKEETIKASAVLFFSEPSTRTRLSFEKAARELGIETYLVSGSESSTVKGESFFDTLKTFEGLGFDYVVFRVPFVFFPYKEIVKSLNLRLVNAGDGTHQHPSQGLIDFFTIKEHFGEVKDLRVLYVGDIKHSRVFRSGAPLLNMFGAKIGVCGPKTLIPRDVEVFKVDVFDDVDKGIDWADVVIWLRLQKERQKENYIPSESSYFKQFGLTKERFEKVKLYMHPGPVNRNVDIDHELVYTEKSLIQEQVKNGIPVRKAIYKFLWT
notes: Aspartate transcarbamoylase (pyrB) of Aquifex aeolicus; gene amplified by PCR from the genome and inserted into pRSETC; 291 residues superposed in the structure; also called native ATC; pyrB product
On to B5, for which the binding result in data set [4], in data set [5], in data set [6] and in data set [7] was “binds” each time. Also, the “stoichiometry N” value in data set [8] stood at 3.
